Test results published in article PMC8184817, “Transmission of light signals from the light-oxygen-voltage core via the hydrophobic region of the β-sheet surface in aureochrome-1” (Scientific Reports, 2021).

Tests used:
[1] = target: the molecule itself; assay: SEC; light (L) state: 8 or 50 µM protein illuminated 2 min with blue light, column under continuous LED irradiation; Superdex 75, 400 mM NaCl, 20 mM Tris-HCl pH 7.0, 25 ± 1 °C, 0.5 mL/min; monomer to dimer
[2] = target: the molecule itself; assay: SEC; dark (D) state: 8 or 50 µM protein incubated 20 min at 25 °C in the dark; Superdex 75 column, 400 mM NaCl, 20 mM Tris-HCl pH 7.0, 25 ± 1 °C, 0.5 mL/min; monomer to dimer
[3] = target: the molecule itself; assay: dynamic light scattering (DLS); light (L) state: immediately after 1 min of blue light, 30-60 µM protein, 25 °C, hydrodynamic radius extrapolated to 0 µM protein; monomer to dimer
[4] = target: the molecule itself; assay: dynamic light scattering (DLS); dark (D) state: 30-60 µM protein, 25 °C, hydrodynamic radius extrapolated to 0 µM protein; monomer to dimer

B1: Photozipper (PZ), N-terminally truncated aureochrome-1 of Vaucheria frigida, wild type (domain or fragment, UniProt A8QW55 113-348, looked up)
chain: GSISSELTEAQKVERRERNREHAKRSRVRKKFLLESLQQSVNELNHENNSLKESIREHLGPRGDSLIAQSSPEADTLLTDNPSKANRILEDPDYSLVKALQMAQQNFVITDASLPDNPIVYASRGFLTLTGYSLDQILGRNCRFLQGPETDPRAVDKIRNAITKGVDTSVCLLNYRQDGTTFWNLFFVAGLRDSKGNIVNYVGVQSKVSEDYAKLLVNEQNIEYKGVRTSNMLRRK
notes: aureochrome-1 of Vaucheria frigida (VfAUREO1), G113-K348 with C162S and C182S, encoded by the synthetic gene opZL; holds the bZIP and LOV domains; in the light (L) state FMN forms a covalent adduct with a conserved cysteine; also called wtPZ; source: recombinant protein
Q: Does B1 bind [1]?
A: Result: binds

B2: Photozipper (PZ) V314I mutant (domain or fragment, Vaucheria frigida, UniProt A8QW55 113-348, looked up)
chain: GSISSELTEAQKVERRERNREHAKRSRVRKKFLLESLQQSVNELNHENNSLKESIREHLGPRGDSLIAQSSPEADTLLTDNPSKANRILEDPDYSLVKALQMAQQNFVITDASLPDNPIVYASRGFLTLTGYSLDQILGRNCRFLQGPETDPRAVDKIRNAITKGVDTSVCLLNYRQDGTTFWNLFFVAGLRDSKGNIVNYIGVQSKVSEDYAKLLVNEQNIEYKGVRTSNMLRRK
notes: aureochrome-1 of Vaucheria frigida (VfAUREO1), G113-K348 with C162S and C182S (opZL gene), plus V314I; also called β-sheet mutant
Q: B2 was tested. Which “stoichiometry N” value [2] did it give?
A: The value was 2.

B3: Photozipper (PZ) L201A mutant (domain or fragment, Vaucheria frigida, UniProt A8QW55 113-348, looked up)
chain: GSISSELTEAQKVERRERNREHAKRSRVRKKFLLESLQQSVNELNHENNSLKESIREHLGPRGDSLIAQSSPEADTLLTDNPSKANRIAEDPDYSLVKALQMAQQNFVITDASLPDNPIVYASRGFLTLTGYSLDQILGRNCRFLQGPETDPRAVDKIRNAITKGVDTSVCLLNYRQDGTTFWNLFFVAGLRDSKGNIVNYVGVQSKVSEDYAKLLVNEQNIEYKGVRTSNMLRRK
notes: aureochrome-1 of Vaucheria frigida (VfAUREO1), G113-K348 with C162S and C182S (opZL gene), plus L201A; also called A'α mutant
Q: Does B3 bind [2]?
A: Result: binds

B4: Photozipper (PZ) Q217A mutant (domain or fragment, Vaucheria frigida, UniProt A8QW55 113-348, looked up)
chain: GSISSELTEAQKVERRERNREHAKRSRVRKKFLLESLQQSVNELNHENNSLKESIREHLGPRGDSLIAQSSPEADTLLTDNPSKANRILEDPDYSLVKALQMAQANFVITDASLPDNPIVYASRGFLTLTGYSLDQILGRNCRFLQGPETDPRAVDKIRNAITKGVDTSVCLLNYRQDGTTFWNLFFVAGLRDSKGNIVNYVGVQSKVSEDYAKLLVNEQNIEYKGVRTSNMLRRK
notes: aureochrome-1 of Vaucheria frigida (VfAUREO1), G113-K348 with C162S and C182S (opZL gene), plus Q217A; also called hinge mutant
Q: Does B4 bind [3]?
A: Result: binds

B5: Photozipper (PZ) Q216A mutant (domain or fragment, Vaucheria frigida, UniProt A8QW55 113-348, looked up)
chain: GSISSELTEAQKVERRERNREHAKRSRVRKKFLLESLQQSVNELNHENNSLKESIREHLGPRGDSLIAQSSPEADTLLTDNPSKANRILEDPDYSLVKALQMAAQNFVITDASLPDNPIVYASRGFLTLTGYSLDQILGRNCRFLQGPETDPRAVDKIRNAITKGVDTSVCLLNYRQDGTTFWNLFFVAGLRDSKGNIVNYVGVQSKVSEDYAKLLVNEQNIEYKGVRTSNMLRRK
notes: aureochrome-1 of Vaucheria frigida (VfAUREO1), G113-K348 with C162S and C182S (opZL gene), plus Q216A; also called hinge mutant
Q: Does B5 bind [3]?
A: Result: binds

B6: Photozipper (PZ) L303A mutant (domain or fragment, Vaucheria frigida, UniProt A8QW55 113-348, looked up)
chain: GSISSELTEAQKVERRERNREHAKRSRVRKKFLLESLQQSVNELNHENNSLKESIREHLGPRGDSLIAQSSPEADTLLTDNPSKANRILEDPDYSLVKALQMAQQNFVITDASLPDNPIVYASRGFLTLTGYSLDQILGRNCRFLQGPETDPRAVDKIRNAITKGVDTSVCLLNYRQDGTTFWNLFFVAGARDSKGNIVNYVGVQSKVSEDYAKLLVNEQNIEYKGVRTSNMLRRK
notes: aureochrome-1 of Vaucheria frigida (VfAUREO1), G113-K348 with C162S and C182S (opZL gene), plus L303A; also called β-sheet mutant
Q: Does B6 bind [3]?
A: Result: binds

B7: Photozipper (PZ) V314A mutant (domain or fragment, Vaucheria frigida, UniProt A8QW55 113-348, looked up)
chain: GSISSELTEAQKVERRERNREHAKRSRVRKKFLLESLQQSVNELNHENNSLKESIREHLGPRGDSLIAQSSPEADTLLTDNPSKANRILEDPDYSLVKALQMAQQNFVITDASLPDNPIVYASRGFLTLTGYSLDQILGRNCRFLQGPETDPRAVDKIRNAITKGVDTSVCLLNYRQDGTTFWNLFFVAGLRDSKGNIVNYAGVQSKVSEDYAKLLVNEQNIEYKGVRTSNMLRRK
notes: aureochrome-1 of Vaucheria frigida (VfAUREO1), G113-K348 with C162S and C182S (opZL gene), plus V314A; also called β-sheet mutant
Q: Does B7 bind [1]?
A: Result: binds

B8: Photozipper (PZ) N218A mutant (domain or fragment, Vaucheria frigida, UniProt A8QW55 113-348, looked up)
chain: GSISSELTEAQKVERRERNREHAKRSRVRKKFLLESLQQSVNELNHENNSLKESIREHLGPRGDSLIAQSSPEADTLLTDNPSKANRILEDPDYSLVKALQMAQQAFVITDASLPDNPIVYASRGFLTLTGYSLDQILGRNCRFLQGPETDPRAVDKIRNAITKGVDTSVCLLNYRQDGTTFWNLFFVAGLRDSKGNIVNYVGVQSKVSEDYAKLLVNEQNIEYKGVRTSNMLRRK
notes: aureochrome-1 of Vaucheria frigida (VfAUREO1), G113-K348 with C162S and C182S (opZL gene), plus N218A; also called hinge mutant
Q: Does B8 bind [3]?
A: Result: binds

B9: Photozipper (PZ) L201A/L208A/L212A triple mutant (domain or fragment, Vaucheria frigida, UniProt A8QW55 113-348, looked up)
chain: GSISSELTEAQKVERRERNREHAKRSRVRKKFLLESLQQSVNELNHENNSLKESIREHLGPRGDSLIAQSSPEADTLLTDNPSKANRIAEDPDYSAVKAAQMAQQNFVITDASLPDNPIVYASRGFLTLTGYSLDQILGRNCRFLQGPETDPRAVDKIRNAITKGVDTSVCLLNYRQDGTTFWNLFFVAGLRDSKGNIVNYVGVQSKVSEDYAKLLVNEQNIEYKGVRTSNMLRRK
notes: aureochrome-1 of Vaucheria frigida (VfAUREO1), G113-K348 with C162S and C182S (opZL gene), plus L201A, L208A and L212A; also called A'α mutant
Q: Does B9 bind [2]?
A: Result: binds

B10: Photozipper (PZ) L208A mutant (domain or fragment, Vaucheria frigida, UniProt A8QW55 113-348, looked up)
chain: GSISSELTEAQKVERRERNREHAKRSRVRKKFLLESLQQSVNELNHENNSLKESIREHLGPRGDSLIAQSSPEADTLLTDNPSKANRILEDPDYSAVKALQMAQQNFVITDASLPDNPIVYASRGFLTLTGYSLDQILGRNCRFLQGPETDPRAVDKIRNAITKGVDTSVCLLNYRQDGTTFWNLFFVAGLRDSKGNIVNYVGVQSKVSEDYAKLLVNEQNIEYKGVRTSNMLRRK
notes: aureochrome-1 of Vaucheria frigida (VfAUREO1), G113-K348 with C162S and C182S (opZL gene), plus L208A; also called L208L (as printed once); A'α mutant
Q: Does B10 bind [2]?
A: Result: binds

B11: Photozipper (PZ) F219V mutant (domain or fragment, Vaucheria frigida, UniProt A8QW55 113-348, looked up)
chain: GSISSELTEAQKVERRERNREHAKRSRVRKKFLLESLQQSVNELNHENNSLKESIREHLGPRGDSLIAQSSPEADTLLTDNPSKANRILEDPDYSLVKALQMAQQNVVITDASLPDNPIVYASRGFLTLTGYSLDQILGRNCRFLQGPETDPRAVDKIRNAITKGVDTSVCLLNYRQDGTTFWNLFFVAGLRDSKGNIVNYVGVQSKVSEDYAKLLVNEQNIEYKGVRTSNMLRRK
notes: aureochrome-1 of Vaucheria frigida (VfAUREO1), G113-K348 with C162S and C182S (opZL gene), plus F219V; also called β-sheet mutant
Q: For B11, which “stoichiometry N” value [2] is on record?
A: Its value is 2.

B12: Photozipper (PZ) L212A mutant (domain or fragment, Vaucheria frigida, UniProt A8QW55 113-348, looked up)
chain: GSISSELTEAQKVERRERNREHAKRSRVRKKFLLESLQQSVNELNHENNSLKESIREHLGPRGDSLIAQSSPEADTLLTDNPSKANRILEDPDYSLVKAAQMAQQNFVITDASLPDNPIVYASRGFLTLTGYSLDQILGRNCRFLQGPETDPRAVDKIRNAITKGVDTSVCLLNYRQDGTTFWNLFFVAGLRDSKGNIVNYVGVQSKVSEDYAKLLVNEQNIEYKGVRTSNMLRRK
notes: aureochrome-1 of Vaucheria frigida (VfAUREO1), G113-K348 with C162S and C182S (opZL gene), plus L212A; also called A'α mutant
Q: Does B12 bind [4]?
A: Result: binds

B13: Photozipper (PZ) F299V mutant (domain or fragment, Vaucheria frigida, UniProt A8QW55 113-348, looked up)
chain: GSISSELTEAQKVERRERNREHAKRSRVRKKFLLESLQQSVNELNHENNSLKESIREHLGPRGDSLIAQSSPEADTLLTDNPSKANRILEDPDYSLVKALQMAQQNFVITDASLPDNPIVYASRGFLTLTGYSLDQILGRNCRFLQGPETDPRAVDKIRNAITKGVDTSVCLLNYRQDGTTFWNLFVVAGLRDSKGNIVNYVGVQSKVSEDYAKLLVNEQNIEYKGVRTSNMLRRK
notes: aureochrome-1 of Vaucheria frigida (VfAUREO1), G113-K348 with C162S and C182S (opZL gene), plus F299V; also called β-sheet mutant
Q: Does B13 bind [3]?
A: Result: binds

B14: Photozipper (PZ) V316A mutant (domain or fragment, Vaucheria frigida, UniProt A8QW55 113-348, looked up)
chain: GSISSELTEAQKVERRERNREHAKRSRVRKKFLLESLQQSVNELNHENNSLKESIREHLGPRGDSLIAQSSPEADTLLTDNPSKANRILEDPDYSLVKALQMAQQNFVITDASLPDNPIVYASRGFLTLTGYSLDQILGRNCRFLQGPETDPRAVDKIRNAITKGVDTSVCLLNYRQDGTTFWNLFFVAGLRDSKGNIVNYVGAQSKVSEDYAKLLVNEQNIEYKGVRTSNMLRRK
notes: aureochrome-1 of Vaucheria frigida (VfAUREO1), G113-K348 with C162S and C182S (opZL gene), plus V316A; also called β-sheet mutant
Q: Does B14 bind [2]?
A: Result: binds
